The target of series [1] is collagen I (Guinea pig dermis) (Guinea pig).
A further series deals with collagen I. As to conditions: 10:1 molar excess over collagen; cited from earlier work. The source says:
In both models of collagen fibril assembly, a number of MMP-3 binding sites are concealed, consistent with the observed inhibition of fibrillogenesis in the presence of MMP-3 (Fig. 4g).

The values that follow come from PMC6906530, “Structural studies of the MMP-3 interaction with triple-helical collagen introduce new roles for the enzyme in tissue remodelling” (Scientific Reports, 2019).

Chain of collagen I (Guinea pig dermis) (Guinea pig) (main, as listed by the source, chain 1 of 2): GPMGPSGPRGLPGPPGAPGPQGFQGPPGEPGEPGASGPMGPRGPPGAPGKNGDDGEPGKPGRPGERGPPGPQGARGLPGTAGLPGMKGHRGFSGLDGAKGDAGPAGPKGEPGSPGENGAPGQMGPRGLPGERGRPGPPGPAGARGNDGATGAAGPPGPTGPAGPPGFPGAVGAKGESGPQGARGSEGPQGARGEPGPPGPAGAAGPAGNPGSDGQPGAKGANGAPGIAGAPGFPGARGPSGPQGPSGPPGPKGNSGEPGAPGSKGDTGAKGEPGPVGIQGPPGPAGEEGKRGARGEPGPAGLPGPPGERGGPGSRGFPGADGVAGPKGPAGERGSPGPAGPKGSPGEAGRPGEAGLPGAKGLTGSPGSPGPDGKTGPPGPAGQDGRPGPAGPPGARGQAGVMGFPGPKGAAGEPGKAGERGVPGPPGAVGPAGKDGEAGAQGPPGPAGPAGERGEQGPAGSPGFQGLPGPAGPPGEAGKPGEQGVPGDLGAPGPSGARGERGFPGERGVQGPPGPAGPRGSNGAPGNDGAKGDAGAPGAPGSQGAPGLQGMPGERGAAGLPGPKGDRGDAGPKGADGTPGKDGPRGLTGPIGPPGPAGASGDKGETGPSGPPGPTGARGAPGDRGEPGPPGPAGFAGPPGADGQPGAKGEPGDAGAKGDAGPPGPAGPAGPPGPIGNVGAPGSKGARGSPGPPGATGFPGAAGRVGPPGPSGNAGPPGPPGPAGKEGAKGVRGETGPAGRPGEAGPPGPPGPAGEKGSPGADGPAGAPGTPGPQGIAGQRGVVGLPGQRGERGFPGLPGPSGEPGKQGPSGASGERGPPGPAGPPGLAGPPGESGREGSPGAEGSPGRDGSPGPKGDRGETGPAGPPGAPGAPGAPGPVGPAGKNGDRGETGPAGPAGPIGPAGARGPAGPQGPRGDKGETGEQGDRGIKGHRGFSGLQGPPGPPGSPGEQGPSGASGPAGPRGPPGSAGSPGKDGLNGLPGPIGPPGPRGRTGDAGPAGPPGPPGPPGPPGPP
Chain of collagen I (Guinea pig dermis) (Guinea pig) (partner, as listed by the source, chain 2 of 2): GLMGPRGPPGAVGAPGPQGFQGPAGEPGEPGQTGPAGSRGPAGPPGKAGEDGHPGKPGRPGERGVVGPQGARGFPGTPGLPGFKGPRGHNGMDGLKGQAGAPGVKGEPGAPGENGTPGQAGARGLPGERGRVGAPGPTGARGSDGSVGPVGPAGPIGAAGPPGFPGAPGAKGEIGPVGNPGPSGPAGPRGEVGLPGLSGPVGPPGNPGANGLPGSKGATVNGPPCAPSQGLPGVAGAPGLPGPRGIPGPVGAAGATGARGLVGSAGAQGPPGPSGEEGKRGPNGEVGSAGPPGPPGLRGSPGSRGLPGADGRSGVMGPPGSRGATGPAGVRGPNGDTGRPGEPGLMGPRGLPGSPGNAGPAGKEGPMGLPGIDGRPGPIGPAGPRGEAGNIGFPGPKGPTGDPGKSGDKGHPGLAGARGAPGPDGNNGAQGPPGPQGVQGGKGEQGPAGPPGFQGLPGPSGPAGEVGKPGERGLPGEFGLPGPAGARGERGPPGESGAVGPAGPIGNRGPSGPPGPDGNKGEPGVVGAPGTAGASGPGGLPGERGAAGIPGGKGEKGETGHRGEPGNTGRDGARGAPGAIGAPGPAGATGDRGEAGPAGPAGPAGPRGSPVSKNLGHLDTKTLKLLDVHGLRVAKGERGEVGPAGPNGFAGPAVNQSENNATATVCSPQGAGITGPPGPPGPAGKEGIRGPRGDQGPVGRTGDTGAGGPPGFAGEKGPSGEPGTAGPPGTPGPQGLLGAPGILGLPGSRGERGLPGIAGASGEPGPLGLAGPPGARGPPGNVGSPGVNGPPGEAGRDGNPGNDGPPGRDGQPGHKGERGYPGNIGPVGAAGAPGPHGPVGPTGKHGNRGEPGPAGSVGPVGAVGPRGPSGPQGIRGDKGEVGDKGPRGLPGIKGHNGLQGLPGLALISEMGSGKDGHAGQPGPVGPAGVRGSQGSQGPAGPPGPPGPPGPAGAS

Regarding “mature MMP-3(E200A) (from UniProt P08254 100-477) (enzyme)”, the collagen I fibrillogenesis by turbidity at 500 nm, 37 °C, 1 μM fibrillogenesis-competent collagen I (with telopeptides) with increasing MMP-3(E200A); delay at a ratio of 0.5:1 to collagen I in series [1] is 50 min.

B1: SPARC: matricellular calcium binding protein, secreted protein acidic and rich in cysteine (protein, UniProt P09486 18-303, looked up)
SPARC: APQQEALPDETEVVEETVAEVTEVSVGANPVQVEVGEFDDGAEETEEEVVAENPCQNHHCKHGKVCELDENNTPMCVCQDPTSCPAPIGEFEKVCSNDNKTFDSSCHFFATKCTLEGTKKGHKLHLDYIGPCKYIPPCLDSELTEFPLRMRDWLKNVLVTLYERDEDNNLLTEKQKLRVKKIHENEKRLEAGDHPVELLARDFEKNYNMYIFPVHWQFGQLDQHPIDGYLSHTELAPLRAPLIPMEHCTTRFFETCDLDNDKYIALDEWAGCFGIKQKDIDKDLVI
As for B1, in the series with collagen I, the “Delay of collagen fibrillogenesis relative to MMP-3(E200A)” value is listed as “comparably”.
